Laboratory results from the supplement of paper PMC5998384.

How the values were obtained:
[1] = system: HeLa Kyoto; experiment: solubility in G1/S (NP-40 vs SDS abundance) (log2 ratio); higher = more soluble; conditions: cell cycle stage: G1/S
[2] = system: HeLa Kyoto; experiment: thermal stability score vs G1/S (z-score of summed log2 fold changes over temperatures); higher = more thermally stable than in G1/S
[3] = system: HeLa Kyoto; experiment: melting temperature (median over replicates), in situ; higher = more thermally stable
[4] = system: HeLa Kyoto; experiment: solubility change mitosis vs G1/S (difference of NP-40 vs SDS log2 ratios) (log2 ratio difference); higher = more soluble in mitosis
[5] = cell cycle stage: early G1 (4.5 h after nocodazole release)
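Wherever melting temperature (median over replicates), in situ is given: HeLa Kyoto cells synchronized by double thymidine or nocodazole block, proteins quantified by TMT10plex mass spectrometry, three independent biological replicates.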
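Wherever solubility change mitosis vs G1/S (difference of NP-40 vs SDS log2 ratios) is given: synchronized HeLa Kyoto cells (double thymidine block for G1/S, nocodazole release for mitosis), protein amounts in NP-40 versus SDS lysates quantified by mass spectrometry, three biological replicates.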
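Wherever solubility in G1/S (NP-40 vs SDS abundance) is given: HeLa Kyoto cells arrested at G1/S by double thymidine block, proteins quantified by TMT10plex mass spectrometry in mild NP-40 versus SDS extracts, three biological replicates.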
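Wherever thermal stability score vs G1/S (z-score of summed log2 fold changes over temperatures) is given: synchronized HeLa Kyoto cells, proteins quantified by TMT10plex mass spectrometry, three biological replicates, mitosis taken 0.5 h after nocodazole release, G1/S directly after double thymidine block.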

Substance | solubility in G1/S (log2) [1] | thermal stability score [2, 5] | thermal stability score ([2]; cell cycle stage: mitosis) | melting temperature ([3]; cell cycle stage: G1/S) | solubility change mitosis (log2) [4] | melting temperature ([3]; cell cycle stage: mitosis)
MGKLRRRYNIKGRQQAGPGPSKGPPEPPPVQLELEDKDTLKGVDASNALVLPGKKKKKTKAPPLSKKEKKPLTKKEKKVLQKILEQKEKKSQRAEMLQKLSEVQASEAEMRLFYTTSKLGTGNRMYHTKEKADEVVAPGQEKISSLSGAHRKRRRWPSAEEEEEEEEESESELEEESELDEDPAAEPAEAGVGTTVAPLPPAPAPSSQPVPAGMTVPPPPAAAPPLPRALAKPAVFIPVNRSPEMQEERLKLPILSEEQVIMEAVAEHPIVIVCGETGSGKTTQVPQFLYEAGFSSEDSIIGVTEPRRVAAVAMSQRVAKEMNLSQRVVSYQIRYEGNVTEETRIKFMTDGVLLKEIQKDFLLLRYKVVIIDEAHERSVYTDILIGLLSRIVTLRAKRNLPLKLLIMSATLRVEDFTQNPRLFAKPPPVIKVESRQFPVTVHFNKRTPLEDYSGECFRKVCKIHRMLPAGGILVFLTGQAEVHALCRRLRKAFPPSRARPQEKDDDQKDSVEEMRKFKKSRARAKKARAEVLPQINLDHYSVLPAGEGDEDREAEVDEEEGALDSDLDLDLGDGGQDGGEQPDASLPLHVLPLYSLLAPEKQAQVFKPPPEGTRLCVVATNVAETSLTIPGIKYVVDCGKVKKRYYDRVTGVSSFRVTWVSQASADQRAGRAGRTEPGHCYRLYSSAVFGDFEQFPPPEITRRPVEDLILQMKALNVEKVINFPFPTPPSVEALLAAEELLIALGALQPPQKAERVKQLQENRLSCPITALGRTMATFPVAPRYAKMLALSRQHGCLPYAITIVASMTVRELFEELDRPAASDEELTRLKSKRARVAQMKRTWAGQGASLKLGDLMVLLGAVGACEYASCTPQFCEANGLRYKAMMEIRRLRGQLTTAVNAVCPEAELFVDPKMQPPTESQVTYLRQIVTAGLGDHLARRVQSEEMLEDKWRNAYKTPLLDDPVFIHPSSVLFKELPEFVVYQEIVETTKMYMKGVSSVEVQWIPALLPSYCQFDKPLEEPAPTYCPERGRVLCHRASVFYRVGWPLPAIEVDFPEGIDRYKHFARFLLEGQVFRKLASYRSCLLSSPGTMLKTWARLQPRTESLLRALVAEKADCHEALLAAWKKNPKYLLAEYCEWLPQAMHPDIEKAWPPTTVH [DHX37] | -1 | 0.32 | 0.922 | 50.3 °C | 0.635 | 
MEPTAPSLTEEDLTEVKKDALENLRVYLCEKIIAERHFDHLRAKKILSREDTEEISCRTSSRKRAGKLLDYLQENPKGLDTLVESIRREKTQNFLIQKITDEVLKLRNIKLEHLKGLKCSSCEPFPDGATNNLSRSNSDESNFSEKLRASTVMYHPEGESSTTPFFSTNSSLNLPVLEVGRTENTIFSSTTLPRPGDPGAPPLPPDLQLEEEGTCANSSEMFLPLRSRTVSRQ [BCL10] | 0.624 | -0.239 | -0.726 | 49.8 °C | 0.181 | 50.5 °C
MADEGKSYSEHDDERVNFPQRKKKGRGPFRWKYGEGNRRSGRGGSGIRSSRLEEDDGDVAMSDAQDGPRVRYNPYTTRPNRRGDTWHDRDRIHVTVRRDRAPPERGGAGTSQDGTSKNWFKITIPYGRKYDKAWLLSMIQSKCSVPFTPIEFHYENTRAQFFVEDASTASALKAVNYKILDRENRRISIIINSSAPPHTILNELKPEQVEQLKLIMSKRYDGSQQALDLKGLRSDPDLVAQNIDVVLNRRSCMAATLRIIEENIPELLSLNLSNNRLYRLDDMSSIVQKAPNLKILNLSGNELKSERELDKIKGLKLEELWLDGNSLCDTFRDQSTYISAIRERFPKLLRLDGHELPPPIAFDVEAPTTLPPCKGSYFGTENLKSLVLHFLQQYYAIYDSGDRQGLLDAYHDGACCSLSIPFIPQNPARSSLAEYFKDSRNVKKLKDPTLRFRLLKHTRLNVVAFLNELPKTQHDVNSFVVDISAQTSTLLCFSVNGVFKEVDGKSRDSLRAFTRTFIAVPASNSGLCIVNDELFVRNASSEEIQRAFAMPAPTPSSSPVPTLSPEQQEMLQAFSTQSGMNLEWSQKCLQDNNWDYTRSAQAFTHLKAKGEIPEVAFMK [NXF1] | -0.89 | 1.64 | 4.14 | 47.3 °C | 0.533 | 49.1 °C
MVAPGLVLGLVLPLILWADRSAGIGFRFASYINNDMVLQKEPAGAVIWGFGTPGATVTVTLRQGQETIMKKVTSVKAHSDTWMVVLDPMKPGGPFEVMAQQTLEKINFTLRVHDVLFGDVWLCSGQSNMQMTVLQIFNATRELSNTAAYQSVRILSVSPIQAEQELEDLVAVDLQWSKPTSENLGHGYFKYMSAVCWLFGRHLYDTLQYPIGLIASSWGGTPIEAWSSGRSLKACGVPKQGSIPYDSVTGPSKHSVLWNAMIHPLCNMTLKGVVWYQGESNINYNTDLYNCTFPALIEDWRETFHRGSQGQTERFFPFGLVQLSSDLSKKSSDDGFPQIRWHQTADFGYVPNPKMPNTFMAVAMDLCDRDSPFGSIHPRDKQTVAYRLHLGARALAYGEKNLTFEGPLPEKIELLAHKGLLNLTYYQQIQVQKKDNKIFEISCCSDHRCKWLPASMNTVSTQSLTLAIDSCHGTVVALRYAWTTWPCEYKQCPLYHPSSALPAPPFIAFITDQGPGHQSNVAK [SIAE] | 0.569 | 1.01 | -0.521 | 58 °C | -0.103 | 57.9 °C
SLC15A4 | 0.0784 | -2.84 | -2.51 | 55.4 °C | -0.171 | 56.5 °C
MKLSRQFTVFGSAIFCVVIFSLYLMLDRGHLDYPRNPRREGSFPQGQLSMLQEKIDHLERLLAENNEIISNIRDSVINLSESVEDGPKSSQSNFSQGAGSHLLPSQLSLSVDTADCLFASQSGSHNSDVQMLDVYSLISFDNPDGGVWKQGFDITYESNEWDTEPLQVFVVPHSHNDPGWLKTFNDYFRDKTQYIFNNMVLKLKEDSRRKFIWSEISYLSKWWDIIDIQKKDAVKSLIENGQLEIVTGGWVMPDEATPHYFALIDQLIEGHQWLENNIGVKPRSGWAIDPFGHSPTMAYLLNRAGLSHMLIQRVHYAVKKHFALHKTLEFFWRQNWDLGSVTDILCHMMPFYSYDIPHTCGPDPKICCQFDFKRLPGGRFGCPWGVPPETIHPGNVQSRARMLLDQYRKKSKLFRTKVLLAPLGDDFRYCEYTEWDLQFKNYQQLFDYMNSQSKFKVKIQFGTLSDFFDALDKADETQRDKGQSMFPVLSGDFFTYADRDDHYWSGYFTSRPFYKRMDRIMESHLRAAEILYYFALRQAHKYKINKFLSSSLYTALTEARRNLGLFQHHDAITGTAKDWVVVDYGTRLFHSLMVLEKIIGNSAFLLILKDKLTYDSYSPDTFLEMDLKQKSQDSLPQKNIIRLSAEPRYLVVYNPLEQDRISLVSVYVSSPTVQVFSASGKPVEVQVSAVWDTANTISETAYEISFRAHIPPLGLKVYKILESASSNSHLADYVLYKNKVEDSGIFTIKNMINTEEGITLENSFVLLRFDQTGLMKQMMTKEDGKHHEVNVQFSWYGTTIKRDKSGAYLFLPDGNAKPYVYTTPPFVRVTHGRIYSEVTCFFDHVTHRVRLYHIQGIEGQSVEVSNIVDIRKVYNREIAMKISSDIKSQNRFYTDLNGYQIQPRMTLSKLPLQANVYPMTTMAYIQDAKHRLTLLSAQSLGVSSLNSGQIEVIMDRRLMQDDNRGLEQGIQDNKITANLFRILLEKRSAVNTEEEKKSVSYPSLLSHITSSLMNHPVIPMANKFSSPTLELQGEFSPLQSSLPCDIHLVNLRTIQSKVGNGHSNEAALILHRKGFDCRFSSKGTGLFCSTTQGKILVQKLLNKFIVESLTPSSLSLMHSPPGTQNISEINLSPMEISTFRIQLR [MAN2A1] | -0.0419 | 2.95 | 3.08 | 54.8 °C | -0.156 | 54.8 °C
